± gives the standard deviation of the averaged measurements.
Experiment: total protein half-life in vivo (active degradation + dilution); higher = more stable protein
[1] = E. coli NCM3722 delta-lon, growth: N-lim chemostat, doubling time 6 h
[2] = E. coli NCM3722 delta-smpB, growth: N-lim chemostat, doubling time 6 h
[3] = E. coli NCM3722 delta-clpP delta-lon delta-hslV, growth: N-lim chemostat, doubling time 6 h
[4] = E. coli NCM3722 delta-clpP, growth: N-lim chemostat, doubling time 6 h
[5] = E. coli NCM3722 delta-hslV, growth: N-lim chemostat, doubling time 6 h
[6] = wild type E. coli NCM3722, growth: C-lim chemostat, doubling time 3 h
[7] = wild type E. coli NCM3722, growth: C-lim chemostat, doubling time 6 h
[8] = wild type E. coli NCM3722, growth: C-lim chemostat, doubling time 12 h
[9] = wild type E. coli NCM3722, growth: N-lim chemostat, doubling time 6 h
[10] = wild type E. coli NCM3722, growth: N-lim chemostat, doubling time 12 h
[11] = wild type E. coli NCM3722, growth: P-lim chemostat, doubling time 6 h
[12] = wild type E. coli NCM3722, growth: P-lim chemostat, doubling time 12 h

Row | Sequence | total protein half-life in vivo [1] [h] | total protein half-life in vivo [2] [h] | total protein half-life in vivo [3] [h] | total protein half-life in vivo [4] [h] | total protein half-life in vivo [5] [h] | total protein half-life in vivo [6] [h] | total protein half-life in vivo [7] [h] | total protein half-life in vivo [8] [h] | total protein half-life in vivo [9] [h] | total protein half-life in vivo [10] [h] | total protein half-life in vivo [11] [h] | total protein half-life in vivo [12] [h]
1 | MNILQFNVRLAEGGAAGVALDLHQRALQQGLASHFVYGYGKGGKESVSHQNYPQVIKHTPRMTAMANIALFRLFNRDLFGNFNELYRTITRTAGPVVLHFHVLHSYWLNLKSVVRFCEKVKNHKPDVTLVWTLHDHWSVTGRCAFTDGCEGWKTGCQKCPTLNNYPPVKIDRAHQLVAGKRQLFREMLALGCQFISPSQHVADAFNSLYGPGRCRIINNGIDMATEAILADLPPVRETQGKPKIAVVAHDLRYDGKTNQQLVREMMALGDKIELHTFGKFSPFTAGNVVNHGFETDKRKLMSALNQMDALVFSSRVDNYPLILCEALSIGVPVIATHSDAAREVLQKSGGKTVSEEEVLQLVQLSKPEIAQAIFGTTLAEFSQRSRAAYSGQQMLEEYVNFYQNL | 5.88 ± 0.64 | 5.05 ± 0.76 |  |  |  |  |  |  |  |  |  | 
2 | MNINRDKIVQLVDTDTIENLTSALSQRLIADQLRLTTAESCTGGKLASALCAAEDTPKFYGAGFVTFTDQAKMKILSVSQQSLERYSAVSEKVAAEMATGAIERADADVSIAITGYGGPEGGEDGTPAGTVWFAWHIKGQNYTAVMHFAGDCETVLALAVRFALAQLLQLLL | 5.18 ± 0.69 | 4.38 ± 0.19 | 4.97 ± 0.3 | 4.57 ± 0.048 | 4.76 ± 0.46 | 3.14 ± 0.69 | 6.15 ± 0.4 | 9.68 | 4.8 ± 0.062 | 11.1 ± 3.5 | 5.68 ± 0.57 | 12.6 ± 0.67
3 | MNINVAELLNGNYILLLFVVLALGLCLGKLRLGSIQLGNSIGVLVVSLLLGQQHFSINTDALNLGFMLFIFCVGVEAGPNFFSIFFRDGKNYLMLALVMVGSALVIALGLGKLFGWDIGLTAGMLAGSMTSTPVLVGAGDTLRHSGMESRQLSLALDNLSLGYALTYLIGLVSLIVGARYLPKLQHQDLQTSAQQIARERGLDTDANRKVYLPVIRAYRVGPELVAWTDGKNLRELGIYRQTGCYIERIRRNGILANPDGDAVLQMGDEIALVGYPDAHARLDPSFRNGKEVFDRDLLDMRIVTEEVVVKNHNAVGKRLAQLKLTDHGCFLNRVIRSQIEMPIDDNVVLNKGDVLQVSGDARRVKTIADRIGFISIHSQVTDLLAFCAFFVIGLMIGMITFQFSTFSFGMGNAAGLLFAGIMLGFMRANHPTFGYIPQGALSMVKEFGLMVFMAGVGLSAGSGINNGLGAIGGQMLIAGLIVSLVPVVICFLFGAYVLRMNRALLFGAMMGARTCAPAMEIISDTARSNIPALGYAGTYAIANVLLTLAGTIIVMVWPGLG |  | 6.19 ± 0.91 | 6.56 ± 0.66 | 6.38 ± 1 |  |  | 7.06 ± 0.39 |  | 6.17 ± 0.47 |  | 7.316 ± 0.023 | 12 ± 2.5
4 | MNIRRKNRLWIACAVLAGLALTIGLVLYALRSNIDLFYTPGEILYGKRETQQMPEVGQRLRVGGMVMPGSVQRDPNSLKVTFTIYDAEGSVDVSYEGILPDLFREGQGVVVQGELEKGNHILAKEVLAKHDENYTPPEVEKAMEANHRRPASVYKDPAS | 4.62 ± 0.13 | 4.65 ± 0.1 | 5.21 ± 0.82 | 4.46 | 4.36 ± 0.36 | 2.91 ± 0.059 | 6.09 ± 0.43 | 8.92 ± 0.19 | 4.31 ± 0.63 | 9.42 ± 2.7 | 4.67 | 10.05 ± 0.046
5 | MNISDVAKITGLTSKAIRFYEEKGLVTPPMRSENGYRTYTQQHLNELTLLRQARQVGFNLEESGELVNLFNDPQRHSADVKRRTLEKVAEIERHIEELQSMRDQLLALANACPGDDSADCPIIENLSGCCHHRAG [P0A9G4] | 2.12 ± 0.77 |  | 4.71 ± 0.63 | 1.45 |  | 1.3 | 1.95 | 2.21 |  | 1.07 | 0.945 | 2.28 ± 0.59
6 | MNISSLRKAFIFMGAVAALSLVNAQSALAANESAKDMTCQEFIDLNPKAMTPVAWWMLHEETVYKGGDTVTLNETDLTQIPKVIEYCKKNPQKNLYTFKNQASNDLPN [P0AET2] |  |  |  | > 8 |  |  |  |  |  |  |  | 
7 | MNIVITGGTGLIGRHLIPRLLELGHQITVVTRNPQKASSVLGPRVTLWQGLADQSNLNGVDAVINLAGEPIADKRWTHEQKERLCQSRWNITQKLVDLINASDTPPSVLISGSATGYYGDLGEVVVTEEEPPHNEFTHKLCARWEEIACRAQSDKTRVCLLRTGVVLAPDGGILGKMLPPFRLGLGGPIGSGRQYLAWIHIDDMVNGILWLLDNELRGPFNMVSPYPVRNEQFAHALGHALHRPAILRVPATAIRLLMGESSVLVLGGQRALPKRLEEAGFAFRWYDLEEALADVVR | 5.86 ± 0.6 | 5.71 ± 0.17 | 7.07 ± 0.37 | 6.1 ± 0.14 | 6.36 ± 0.6 | 3.25 ± 0.15 | 5.86 ± 0.16 | 11.09 ± 0.052 | 5.76 ± 0.032 |  | 5.931 ± 0.026 | 12.38 ± 0.057
8 | MNIVVLISGNGSNLQAIIDACKTNKIKGTVRAVFSNKADAFGLERARQAGIATHTLIASAFDSREAYDRELIHEIDMYAPDVVVLAGFMRILSPAFVSHYAGRLLNIHPSLLPKYPGLHTHRQALENGDEEHGTSVHFVTDELDGGPVILQAKVPVFAGDSEDDITARVQTQEHAIYPLVISWFADGRLKMHENAAWLDGQRLPPQGYAADE | 4.68 ± 0.53 | 4.39 ± 0.18 | 4.883 ± 0.024 | 4.97 ± 0.32 | 5.15 ± 1.4 | 2.94 ± 0.6 | 5.63 ± 2.2 |  | 4.49 ± 0.41 | 9.87 ± 3.2 | 5.58 ± 0.33 | 
9 | MNIYTFDFDEIESQEDFYRDFSQTFGLAKDKVRDLDSLWDVLMNDVLPLPLEIEFVHLGEKTRRRFGALILLFDEAEEELEGHLRFNVRH | 7.32 | 4.41 ± 0.68 | 4.37 ± 1.1 | 3.85 | 5.5 | 2.87 | 5.2 | 9.22 ± 0.45 | 4.83 ± 0.14 | 10.2 | 4.26 | 10.1 ± 1.3
